System: lacZ under control of the tetA promoter (PtetA) in E. coli KM3
Type: cell-based
Conditions: for relative β-galactosidase activity, inducer atc / relative β-galactosidase activity, inducer Ci / relative β-galactosidase activity, inducer Cs / relative β-galactosidase activity, inducer Es / relative β-galactosidase activity, inducer Ms / relative β-galactosidase activity, inducer Ns / relative β-galactosidase activity, inducer Rs / relative β-galactosidase activity, inducer Sm / relative β-galactosidase activity, inducer Ts / relative β-galactosidase activity, inducer Tb: Table 6, reverse repressor hits; for relative β-galactosidase activity, inducer atc: anhydrotetracycline (0.4 μM); for relative β-galactosidase activity, inducer Ci: chlorimuron; for relative β-galactosidase activity, inducer Ci / relative β-galactosidase activity, inducer Cs / relative β-galactosidase activity, inducer Es / relative β-galactosidase activity, inducer Ms / relative β-galactosidase activity, inducer Ns / relative β-galactosidase activity, inducer Rs / relative β-galactosidase activity, inducer Sm / relative β-galactosidase activity, inducer Ts / relative β-galactosidase activity, inducer Tb: same plate assay format (20 ppm); for relative β-galactosidase activity, inducer Cs: chlorsulfuron; for relative β-galactosidase activity, inducer Es: ethametsulfuron; for relative β-galactosidase activity, inducer Ms: metsulfuron; for relative β-galactosidase activity, inducer Ns: nicosulfuron; for relative β-galactosidase activity, inducer Rs: rimsulfuron; for relative β-galactosidase activity, inducer Sm: sulfometuron; for relative β-galactosidase activity, inducer Ts: thifensulfuron; for relative β-galactosidase activity, inducer Tb: tribenuron; for 0.2 ppm 48 hr (colony color intensity, induction by chlorsulfuron): 0.2 ppm chlorsulfuron as inducer, 48 hr at 30° C.; for 0.2 ppm 48 hr (colony color intensity, induction by chlorsulfuron) / Control 84 hr (background activity, no inducer): M9 assay plates, ImageJ colony color intensity; for Control 84 hr (background activity, no inducer): 84 hr at 30° C.

Molecule | relative β-galactosidase activity, inducer atc | relative β-galactosidase activity, inducer Ci | relative β-galactosidase activity, inducer Cs | relative β-galactosidase activity, inducer Es | relative β-galactosidase activity, inducer Ms | relative β-galactosidase activity, inducer Ns | relative β-galactosidase activity, inducer Rs | relative β-galactosidase activity, inducer Sm | relative β-galactosidase activity, inducer Ts | relative β-galactosidase activity, inducer Tb | 0.2 ppm 48 hr/Control 84 hr | 0.2 ppm 48 hr (colony color intensity, induction by chlorsulfuron) | Control 84 hr (background activity, no inducer)
L1-21: library L1 hit with reverse repressor activity (SEQ ID NO: 1206-1213) (protein, rSuR L1-21) MGSRLDKSKVINSALELLNEVGIEGLTTRKLAQKLGVEQPTLYWHVKNKRALLDALAIEMLDRHATHFCPLEGESWQDFLRNNAKSFRCALLSHRDGAKVCLGTAGTEKQYETLENCLAFLCQQGFSLENALYARSAVVCFTLGCVLFDQEMQVAKEERETPTTDSMPPLLRQAAELLDHQGAEPAFLFGLELIICGLEKQLKCESGS | 2.81 | 0.07 | 0.89 | 0.61 | 0.89 | 2.74 | 2.31 | 2.39 | 0.79 | 2.13 | – | – | –
L6-1B03 (protein, Sulfonylurea responsive repressor L6-1B03) MGSRLDKSKVINSALELLNEVGIEGLTTRKLAQKLGVEQPTLYWHVKNKRALLDALAIEMMDRHATHICPLEGESWQDFLRNNAKSMRCALLSHRDGAKVCLGTRWTEQQYEAAENMLAFLCQQGFSLENALYAVSAVRVFTLGCVLFDQESQVAKEERETPTTASMPPLLRQAWELKDHQGAEPAFLFGLELIICGLEKQLKCESGS | – | – | – | – | – | – | – | – | – | – | 4.6 | 30.0 | 6.6
L6-2D07 (protein, Sulfonylurea responsive repressor L6-2D07) MGSRLDKSKVINSALELLNEVGIEGLTTRKLAQKLGVEQPTLYWHVKNKRALLDALAIEMMDRHQTHFCPLEGESWQDFLRNTAKSMRCALLSHRDGAKVCLGTRWTEQQYETAENMLAFLCQQGFSLENALYAMSAVRVFTLGCVLFDQESQVAKEERETPTTASMPPLVRQAWELKDHQGAEPAFLFGLELIICGLEKQLKCESGS | – | – | – | – | – | – | – | – | – | – | 3.4 | 20.0 | 5.8
L6-2C09 (protein, Sulfonylurea responsive repressor L6-2C09) MGSRLDKSKVINSALELLNEVGIEGLTTRKLAQKLGVEQPTLYWHVKNKRALLDALAIEMMDRHQTHYCPLEGESWQDFLRNTAKSMRCALLSHRDGAKVCLGTRWTEQLYETAENQLAFLCQQGFSLENALYAMSAVRVFTLGCVLFDQELQVAKEERETPTTASMPPLLRQAWELKDHQGAEPAFLFGLELIICGLEKQLKCESGS | – | – | – | – | – | – | – | – | – | – | 2.6 | 13.6 | 5.2
L6-3H02: SuR polypeptide, SEQ ID NO: 94 (protein, Sulfonylurea responsive repressor L6-3H02) MGSRLDKSKVINSALELLNEVGIEGLTTRKLAQKLGVEQPTLYWHVKNKRALLDALAIEMMDRHATHYCPLEGESWQDFLRNTAKSMRCALLSHRDGAKVCLGTRWTEQHYESAENMLAFLCQQGFSLENALYAVSAVRVFTLGCVLFDQESQVAKEERETPTTASMPPLVRQAWELKVHQGAEPAFLFGLELIICGLEKQLKCESGS | – | – | – | – | – | – | – | – | – | – | 2.8 | 15.8 | 5.6
L6-5F05 (protein, Sulfonylurea responsive repressor L6-5F05) MGSRLDKSKVINSALELLNEVGIEGLTTRKLAQKLGVEQPTLYWHVKNKRALLDALAIEMMDRHATHICPLEGESWQDFLRNNAKSMRCALLSHRDGAKVCLGTRWTEQQYEAAENQLAFLCQQGFSLENALYAVSAVRVFTLGCVLFDQELQVAKEERETPTTASMPPLLRQAWELKDHQGAEPAFLFGLELIICGLEKQLKCESGS | – | – | – | – | – | – | – | – | – | – | 4.1 | 22.0 | 5.4
L6-4D10 (protein, Sulfonylurea responsive repressor L6-4D10) MGSRLDKSKVINSALELLNEVGIEGLTTRKLAQKLGVEQPTLYWHVKNKRALLDALAIEMMDRHQTHYCPLEGESWQDFLRNNAKSMRCALLSHRDGAKVCLGTRWTEKQYESAENMLAFLCQQGFSLENALYAVSAVRVFTLGCVLFDQESQVAKEERETPTTASMPPLLRQAWELKDHQGAEPAFLFGLELIICGLEKQLKCESGS | – | – | – | – | – | – | – | – | – | – | 3.7 | 18.4 | 5.0
L1-33: library L1 hit with reverse repressor activity (SEQ ID NO: 1206-1213) (protein, rSuR L1-33) MGSRLDKSKVINSALELLNEVGIEGLTTRKLAQKLGVEQPTLYWHVKNKRALLDALAIEMLDRHATHFCPLEGESWQDFLRNNAKSMRCALLSHRDGAKVQLGTAATEKQYETLENKLAFLCQQGFSLENALYAHSAVTQFTLGCVLRDQEGQVAKEERETPTTDSMPPLLRQARELRDHQGAEPAFLFGLELIICGLEKQLKCESGS | 8.25 | 0.76 | 3.74 | 2.11 | 4.29 | 5.34 | 10.32 | 5.02 | 5.51 | 4.71 | – | – | –
L1-25: library L1 hit with reverse repressor activity (SEQ ID NO: 1206-1213) (protein, rSuR L1-25) MGSRLDKSKVINSALELLNEVGIEGLTTRKLAQKLGVEQPTLYWHVKNKRALLDALAIEMLDRHATHFCPLEGESWQDFLRNTAKSMRCALLSHRDGAKVLLGTATTEKQYETLENLLAFLYQQGFSLENALYAWQAVWRFTLGCVLIDQETQVAKEERETPTTDSMPPLLRQAVELKDHQGAEPAFLFGLELIICGLEKQLKCETGS | 1.22 | 0.11 | 0.28 | 0.13 | 0.32 | 1.21 | 1.08 | 0.63 | 0.64 | 1.72 | – | – | –
L1-34: library L1 hit with reverse repressor activity (SEQ ID NO: 1206-1213) (protein, rSuR L1-34) MGSRLDKSKVINSALELLNEVGIEGLTTRKLAQKLGVEQPTLYWHVKNKRALLDALAIEMADRHNTHFCPLEGESWQDFLRNAARSMRCALLSHRDGAKVYLGTARTEKQYETTENVLAFLCQQGFSLENALYAVRAVPRFTLGCVLLDQERQVAKEERETPTTDSMPPLLRQARELTDHQGAEPAFLFGLELIICGLEKQLKCESGS | 3.68 | 0.43 | 0.85 | 1.33 | 1.47 | 2.91 | 2.30 | 2.00 | 2.97 | 2.26 | – | – | –
L1-18: library L1 hit with reverse repressor activity (SEQ ID NO: 1206-1213) (protein, rSuR L1-18) MGSRLDKSKVINSALELLNEVGIEGLTTRKLAQKLGVEQPTLYWHVKNKRALLDALAIEMLDRHLTHFCPLEGESWQDFLRNNAKSMRCALLSHRDGAKVWLGTGFTEKQYETKENRLAFLCQQGFSLENALYAIRAVSRFTLGCVLQDQEPQVAKEERETPTTDSMPPLLRQAVELFDHQGAEPAFLFGLELIICGLEKQLKCESES | 2.35 | 0.36 | 1.22 | 0.37 | 0.79 | 1.44 | 2.55 | 0.94 | 1.13 | 1.65 | – | – | –
